Values quoted from earlier work as cited in paper PMC6538672.

Molecular target: RMI1:RMI2 (Homo sapiens) (UniProt Q9H9A7)
Chain of UniProt Q9H9A7 (Q9H9A7 whole entry, chain 1 of 2): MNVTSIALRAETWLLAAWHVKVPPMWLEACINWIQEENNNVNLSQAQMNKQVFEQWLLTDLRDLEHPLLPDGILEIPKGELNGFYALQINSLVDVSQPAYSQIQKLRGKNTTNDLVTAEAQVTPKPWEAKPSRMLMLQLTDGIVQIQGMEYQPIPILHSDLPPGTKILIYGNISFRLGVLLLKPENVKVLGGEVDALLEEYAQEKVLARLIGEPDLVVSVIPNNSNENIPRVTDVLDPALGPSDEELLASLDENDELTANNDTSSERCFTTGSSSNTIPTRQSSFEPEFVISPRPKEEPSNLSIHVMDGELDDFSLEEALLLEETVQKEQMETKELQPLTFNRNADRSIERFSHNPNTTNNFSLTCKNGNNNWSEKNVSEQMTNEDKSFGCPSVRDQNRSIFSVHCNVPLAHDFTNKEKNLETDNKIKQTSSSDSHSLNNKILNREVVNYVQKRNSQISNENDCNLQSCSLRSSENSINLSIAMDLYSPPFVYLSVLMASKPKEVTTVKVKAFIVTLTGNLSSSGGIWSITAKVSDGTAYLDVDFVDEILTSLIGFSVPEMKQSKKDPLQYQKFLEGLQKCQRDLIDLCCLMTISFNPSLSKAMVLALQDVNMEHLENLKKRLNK
Chain of UniProt Q9H9A7 (Q96E14 2-147, chain 2 of 2, further chain): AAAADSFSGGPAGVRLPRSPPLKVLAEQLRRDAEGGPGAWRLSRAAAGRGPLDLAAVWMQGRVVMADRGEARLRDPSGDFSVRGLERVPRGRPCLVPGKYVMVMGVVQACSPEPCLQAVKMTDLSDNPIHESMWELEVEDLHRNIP

## FANCM MM2 (from UniProt Q8IYD8)
  Kd: 5 nM
